T1: interleukin-23 receptor (IL-23R) (human, UniProt Q5VWK5 24-629)
T1 sequence (looked up): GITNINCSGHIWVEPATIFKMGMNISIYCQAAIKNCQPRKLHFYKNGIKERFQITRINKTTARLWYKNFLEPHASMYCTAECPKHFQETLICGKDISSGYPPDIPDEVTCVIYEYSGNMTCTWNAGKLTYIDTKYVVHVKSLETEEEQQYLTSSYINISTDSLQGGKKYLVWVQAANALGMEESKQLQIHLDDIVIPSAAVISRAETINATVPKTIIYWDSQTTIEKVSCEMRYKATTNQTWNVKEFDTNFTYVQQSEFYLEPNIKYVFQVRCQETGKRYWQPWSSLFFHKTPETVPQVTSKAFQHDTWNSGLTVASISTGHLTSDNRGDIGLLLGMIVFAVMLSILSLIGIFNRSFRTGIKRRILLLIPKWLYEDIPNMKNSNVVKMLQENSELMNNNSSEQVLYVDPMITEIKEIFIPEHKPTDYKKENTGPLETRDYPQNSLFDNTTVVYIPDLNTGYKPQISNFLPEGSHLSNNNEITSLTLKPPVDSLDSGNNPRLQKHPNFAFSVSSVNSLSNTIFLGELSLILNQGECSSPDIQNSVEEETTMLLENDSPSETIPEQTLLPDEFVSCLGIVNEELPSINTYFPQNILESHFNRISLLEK

B1: Peptide of SEQ ID NO: 299 (peptide)
peptide: XNTXKXXXXKNK
modifications: Ac-[Pen]-N-T-[W(7-OMe)]-[Lys(Ac)]-[Pen]-Phe[4-(2-aminoethoxy)]-[2-Nal]-[a-MeLys]-[Lys(Ac)]-N-[(D)Lys]-NH2; Pen-Pen disulfide
B2: Peptide of SEQ ID NO: 320 (peptide)
peptide: XNTXXXXXXKNL
modifications: Ac-[Pen]-N-T-[W(7-Me)]-[Lys(Gly)]-[Pen]-Phe[4-(2-aminoethoxy)]-[2-Nal]-[a-MeLys]-[Lys(Ac)]-N-[(D)Leu]-NH2; Pen-Pen disulfide
B3: Peptide of SEQ ID NO: 210 (peptide)
peptide: XNTXQXXXXKLX
modifications: Ac-[Pen]-NT-[W(7-Me)]-Q-[Pen]-Phe[4-(2-aminoethoxy)]-[2-Nal]-[a-MeLeu]-[Lys(Ac)]-[(D)Leu]-[bA]-NH2; Pen-Pen disulfide
B4: Peptide of SEQ ID NO: 296 (peptide)
peptide: XNTXQXXXXKNK
modifications: Ac-[Pen]-N-T-[W(5-CN)]-Q-[Pen]-Phe[4-(2-aminoethoxy)]-[2-Nal]-[a-MeLys]-[Lys(Ac)]-N-[(D)Lys]-NH2; Pen-Pen disulfide
B5: Peptide of SEQ ID NO: 281 (peptide)
peptide: Ac-[Pen]NT[Trp(7-Me)][Cit][Pen][AEF][2Nal][αMeK][Cit][βAla][βAla]-NH2
modifications: disulfide 1-6
SMILES: CC(=O)N[C@@H]1C(=O)N[C@@H](CC(N)=O)C(=O)N[C@@H]([C@@H](C)O)C(=O)N[C@@H](Cc2c[nH]c3c(C)cccc23)C(=O)N[C@@H](CCCNC(N)=O)C(=O)N[C@H](C(=O)N[C@@H](Cc2ccc(OCCN)cc2)C(=O)N[C@@H](Cc2ccc3ccccc3c2)C(=O)N[C@@](C)(CCCCN)C(=O)N[C@@H](CCCNC(N)=O)C(=O)NCCC(=O)NCCC(N)=O)C(C)(C)SSC1(C)C
B6: Peptide of SEQ ID NO: 355 (peptide)
peptide: XNTXKXXXXXNL
modifications: Ac-[Pen]-N-T-[W(7-Me)]-[Lys(Ac)]-[Pen]-Phe[4-(2-aminoethoxy)]-[2-Nal]-[a-MeLys]-[Lys(Ala)]-N-[(D)Leu]-NH2; Pen-Pen disulfide
B7: Peptide of SEQ ID NO: 317 (peptide)
peptide: XNTXXXXXXKNL
modifications: Ac-[Pen]-N-T-[W(7-Me)]-[Lys(octanoic)]-[Pen]-Phe[4-(2-aminoethoxy)]-[2-Nal]-[a-MeLys]-[Lys(Ac)]-N-[(D)Leu]-NH2; Pen-Pen disulfide
B8: Peptide of SEQ ID NO: 352 (peptide)
peptide: XNTXKXXXXKSK
modifications: Ac-[Pen]-N-T-[W(7-Me)]-[Lys(Ac)]-[Pen]-Phe[4-(2-aminoethoxy)]-[2-Nal]-[a-MeLys]-[Lys(Ac)]-S-[(D)Lys]-NH2; Pen-Pen disulfide

Starred links: 1 amine or outer side, 2 acyl side, 3 side chain; linkers in the order of their positions; H or OH if unused. Positions of bridges follow the written chain, without caps; N, C: chain ends. Non-standard residues stand in square brackets, D forms with d. Trp(6-Et) = 6-ethyl-tryptophan, CCc1ccc2c(C[C@H](N[*:1])C(=O)[*:2])c[nH]c2c1; Trp(7-Me) = Cc1cccc2c(C[C@H](N)C(=O)O)c[nH]c12; Trp(2-Me) = Cc1[nH]c2ccccc2c1C[C@H](N)C(=O)O; 2Nal = N[C@@H](Cc1ccc2ccccc2c1)C(=O)O; AEF = NCCOc1ccc(C[C@H](N)C(=O)O)cc1; Cit = NC(=O)NCCC[C@H](N)C(=O)O; Pen = CC(C)(S)[C@H](N)C(=O)O; hLeu = CC(C)CC[C@H](N)C(=O)O; αMeK = C[C@](N)(CCCCN)C(=O)O; Abu = CC[C@H](N)C(=O)O; Aib = CC(C)(N)C(=O)O; βAla = NCCC(=O)O Some results are limits rather than exact numbers.

One test concerns the target T1, interleukin-23 receptor (IL-23R). Nature of the test: cell-based or functional assay.
For the molecule B1, the “pStat3 HTRF IC50” value came to 2.86 nM.

For the molecule B2, the “pStat3 HTRF IC50” value came to 0.632 nM.

As for Ac-[Pen]NT[Trp(6-Et)]K(Ac)[Pen][AEF][2Nal][αMeK]K(Ac)N[dK]-NH2 (disulfide 1-6 (inferred)) [Peptide of SEQ ID NO: 349], the “pStat3 HTRF IC50” value worked out at 12.7 nM.

As to Ac-[Pen]NT[Trp(7-Me)]K(Ac)[Pen][His_Bzl][2Nal][αMeK]K(Ac)N[dL]-NH2 (disulfide 1-6 (inferred)) [Peptide of SEQ ID NO: 293], the “pStat3 HTRF IC50” value was determined as 224 nM.

Regarding B3, the “pStat3 HTRF IC50” value was 66.1 nM.

Take B4: the “pStat3 HTRF IC50” value is 6.29 nM.

Ac-[Pen]NT[Trp(7-Me)]K(Ac)[Pen][His_Bzl][2Nal][αMeK]K(Ac)N[dL]-NH2 (disulfide 1-6 (inferred)) [Peptide of SEQ ID NO: 292]: the “pStat3 HTRF IC50” value amounted to 128 nM.

With Ac-[Pen]NT[Trp(7-Me)]K(Ac)[Pen][His_3Bom][2Nal][αMeK]K(Ac)N[dL]-NH2 (disulfide 1-6 (inferred)) [Peptide of SEQ ID NO: 291], the “pStat3 HTRF IC50” value was above 1 µM.

With Ac-[dR][Abu]QT[Trp(7-Me)]K(Ac)C[AEF][2Nal][αMeK]K(Ac)N[dK]-NH2 (thioether 2-7 (inferred)) [Peptide of SEQ ID NO: 324], the “pStat3 HTRF IC50” value is 27 nM.

For Ac-[Pen]NT[Trp(7-Me)][Cit][Pen][AEF][2Nal][αMeK]K(Ac)N[Aib][βAla]-NH2 (disulfide 1-6 (inferred)) [Peptide of SEQ ID NO: 340], the “pStat3 HTRF IC50” value is 0.322 nM.

With Ac-[Pen]NT[Trp(7-i-Pr)]K(Ac)[Pen][AEF][2Nal][αMeK]K(Ac)N[dL]-NH2 (disulfide 1-6 (inferred)) [Peptide of SEQ ID NO: 286], the “pStat3 HTRF IC50” value came out at 1.61 nM.

B5: the “pStat3 HTRF IC50” value amounted to 17.7 nM.

For Ac-[dR][Abu]QT[Trp(7-Me)]K(Ac)C[AEF][2Nal][αMeK]K(Ac)N[dL]-NH2 (thioether 2-7 (inferred)) [Peptide of SEQ ID NO: 325], the “pStat3 HTRF IC50” value is 4.45 nM.

As to B6, the “pStat3 HTRF IC50” value came out at 0.456 nM.

Turning to B7, the “pStat3 HTRF IC50” value worked out at 13 nM.

On to Ac-[Pen][hLeu]T[Trp(7-Me)]K(Ac)[Pen][AEF][2Nal][αMeK]K(Ac)N[dL]-NH2 (disulfide 1-6 (inferred)) [Peptide of SEQ ID NO: 337], for which the “pStat3 HTRF IC50” value was 0.779 nM.

For Ac-[Pen]NT[Trp(7-Me)]K(Ac)[Pen][AEF][Trp(2-Me)][αMeK]K(Ac)N[dK]-NH2 (disulfide 1-6 (inferred)) [Peptide of SEQ ID NO: 353], the “pStat3 HTRF IC50” value was found to be 0.715 nM.

B8: the “pStat3 HTRF IC50” value is 0.927 nM.

The target is the same in a further test. In words: cell-based or functional assay. This is another data set of the same source.
In the case of B2, the “NK Cell Assay IC50” value amounted to 3.35 nM.

With Ac-[Pen]NT[Trp(6-Et)]K(Ac)[Pen][AEF][2Nal][αMeK]K(Ac)N[dK]-NH2 (disulfide 1-6 (inferred)) [Peptide of SEQ ID NO: 349], the “NK Cell Assay IC50” value amounted to 45.5 nM.

For B3, the “NK Cell Assay IC50” value is above 500 nM.

For the molecule Ac-[dR][Abu]QT[Trp(7-Me)]K(Ac)C[AEF][2Nal][αMeK]K(Ac)N[dK]-NH2 (thioether 2-7 (inferred)) [Peptide of SEQ ID NO: 324], the “NK Cell Assay IC50” value worked out at 9.35 nM.

With Ac-[Pen]NT[Trp(7-Me)][Cit][Pen][AEF][2Nal][αMeK]K(Ac)N[Aib][βAla]-NH2 (disulfide 1-6 (inferred)) [Peptide of SEQ ID NO: 340], the “NK Cell Assay IC50” value is 2.1 nM.

With Ac-[dR][Abu]QT[Trp(7-Me)]K(Ac)C[AEF][2Nal][αMeK]K(Ac)N[dL]-NH2 (thioether 2-7 (inferred)) [Peptide of SEQ ID NO: 325], the “NK Cell Assay IC50” value is 12.7 nM.

Consider B6, for which the “NK Cell Assay IC50” value was determined as 5.34 nM.

For Ac-[Pen][hLeu]T[Trp(7-Me)]K(Ac)[Pen][AEF][2Nal][αMeK]K(Ac)N[dL]-NH2 (disulfide 1-6 (inferred)) [Peptide of SEQ ID NO: 337], the “NK Cell Assay IC50” value came to 11.1 nM.

As to Ac-[Pen]NT[Trp(7-Me)]K(Ac)[Pen][AEF][Trp(2-Me)][αMeK]K(Ac)N[dK]-NH2 (disulfide 1-6 (inferred)) [Peptide of SEQ ID NO: 353], the “NK Cell Assay IC50” value was determined as 7.1 nM.

Turning to B8, the “NK Cell Assay IC50” value came out at 3.5 nM.

(Values after patent US20220041658A1 (PROTAGONIST THERAPEUTICS, published 2022).)
